Results reported in patent US20050053993A1, “Uses of an endothelial cell receptor” (priority 2002, published 2005).

Tests used:
caspase 7 = experiment: Caspase 7 activity in HT1080 cells; format: cell-based, human; details: rK5 100 nM and hypoxia, overnight
Protocol: FIG. 16 is a graph showing the effect of rK5 and hypoxia treatment on caspace 7 activity in HT1080 cells. HT1080 cells were plated in 48 well plates. rK5 at 100 nM was added to the plates. HT1080 cells were incubated overnight in hypoxic conditions (95% N2, 5% CO2) compared to controls, which were incubated in 5% CO2. Caspase 7 activity in cell lysates was detected by the activation of an ELISA fluorescent substrate (R&D Systems).

GRP78 (bovine brain) = molecular target: T1, GRP78 (bovine brain) (Bos taurus, UniProt Q0VCX2); experiment: Ultracentrifugation binding of I125rK5(dog) with GRP78; details: 1 nM I125rK5(dog) + 1.5 nM GRP78; peptides 100 nM, rK5 1 nM
T1 construct: from tissue; host or cells: bovine brain
T1 sequence (Q0VCX2 20-655): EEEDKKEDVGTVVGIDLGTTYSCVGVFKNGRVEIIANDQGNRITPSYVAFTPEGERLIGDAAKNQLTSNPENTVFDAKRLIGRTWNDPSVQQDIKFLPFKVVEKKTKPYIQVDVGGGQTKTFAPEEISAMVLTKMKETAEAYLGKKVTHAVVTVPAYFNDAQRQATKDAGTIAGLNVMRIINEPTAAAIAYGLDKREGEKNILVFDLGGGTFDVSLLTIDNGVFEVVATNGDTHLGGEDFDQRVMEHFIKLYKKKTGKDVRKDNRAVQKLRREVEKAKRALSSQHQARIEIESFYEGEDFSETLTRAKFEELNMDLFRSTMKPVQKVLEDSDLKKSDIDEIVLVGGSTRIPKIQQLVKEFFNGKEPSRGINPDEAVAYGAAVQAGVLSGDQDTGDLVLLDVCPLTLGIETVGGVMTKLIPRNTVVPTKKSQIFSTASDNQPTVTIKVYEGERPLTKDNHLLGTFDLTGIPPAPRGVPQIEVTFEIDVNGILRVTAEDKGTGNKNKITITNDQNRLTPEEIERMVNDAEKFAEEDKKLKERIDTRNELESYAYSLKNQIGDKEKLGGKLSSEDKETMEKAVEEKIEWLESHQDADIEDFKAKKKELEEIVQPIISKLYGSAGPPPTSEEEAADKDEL
Protocol: Ultra centrifugation with 50,000 MW cut off filters was used with iodinated recombinant dog K5 (I^125rKS(dog)) and GRP78 (bovine brain). The GRP78 and I^125rK5 (dog) were incubated for 1 hour at room temperature. The solution was then transferred to ultracentrifuges and spun at 10,000×g for 2 min. The top chamber contained GRP78 (mw 78,000) and I^125rK5 (dog) that bound. The top and bottom solutions were counted for I125. Column A: 1 nM I^125rK5(dog). Column B: 1 nM I^125rK5 (dog)+1.5 nM GRP78. Column C: 1 nM I^125rK5(dog)+1.5 nM GRP78+100 nM N-terminal K5 peptide, LLPDVETPSEED. Column D: 1 nM I^125rK5(dog)+1.5 nM GRP78±100 nM active site K5 peptide PRKLYDY. Column E: 1 nM I^125rK5(dog)+1.5 nM GRP78+1 nM rK5 (unlabeled). The GRP78 bound to the labeled rK5 causing its retention on the top of the filter.

[1] = molecular target: T2, recombinant GRP78 ATPase domain (Homo sapiens, UniProt P11021); experiment: NMR binding to recombinant GRP78 ATPase domain
T2 construct: NMR studies with a recombinant GRP78 ATPase domain
T2 sequence (P11021 19-408): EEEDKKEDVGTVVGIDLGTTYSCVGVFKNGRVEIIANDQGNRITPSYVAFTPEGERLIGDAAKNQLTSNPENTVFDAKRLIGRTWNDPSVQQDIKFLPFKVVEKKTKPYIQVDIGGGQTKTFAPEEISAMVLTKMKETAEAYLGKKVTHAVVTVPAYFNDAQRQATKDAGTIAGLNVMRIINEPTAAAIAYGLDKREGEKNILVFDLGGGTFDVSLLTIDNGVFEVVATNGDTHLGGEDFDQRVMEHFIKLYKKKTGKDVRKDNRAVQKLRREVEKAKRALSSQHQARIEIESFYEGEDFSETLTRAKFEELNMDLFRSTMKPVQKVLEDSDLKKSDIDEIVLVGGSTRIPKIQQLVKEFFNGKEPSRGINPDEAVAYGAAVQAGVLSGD

fibroblasts = experiment: Fibroblast migration; format: cell-based; details: concentrations up to 1000-fold higher than for endothelial cell migration; data not shown
D54 = experiment: Tumor cell proliferation, D54; format: cell-based, human; details: D54, 72 hours
Protocol: (§1) Cell Proliferation Assay. The effect of rK5 and rK5 peptides on endothelial cells were assessed using a proliferation assay with 1% BSA and 3 ng/ml bFGF in serum-free media. Relative cell numbers in each well of a 96 well microplate after incubation for 72 hours in the absence or presence of inhibitors were determined by using the AQueous cell proliferation assay (Promega, San Luis Obispo, Calif.). For all other cell lines tested for proliferation, minimal growth media was used (Cao, Y., Ji, R., Davidson, D., Schaller, J., Marti, D., Sohndel, S., McCance, S., O'Reilly, M., Llinas, M., and Folkman, J. Kringle domains of human angiostatin. Characterization of the anti-proliferative activity on endothelial cells. (1996) J. Biol. Chem. 271, 29461-29467). Results are presented as the percent inhibition of control cell (bFGF-induced) proliferation.

HT1080 = experiment: Tumor cell proliferation, HT1080; format: cell-based, human; details: HT1080, 72 hours
Protocol: as §1

A549 = experiment: Tumor cell proliferation, A549; format: cell-based; details: A549, 72 hours
Protocol: as §1

- inhibition of I125rK5(dog) binding to GRP78 (GRP78 (bovine brain)): inhibited
- binding with the ATPase domain of GRP78 (NMR) [1]: direct binding
- IC50 values for cell proliferation (D54): >100 µg/mL
- IC50 values for cell proliferation (HT1080): >100 µg/mL
- IC50 values for cell proliferation (A549): >100 µg/mL
B1: rK5: recombinant kringle 5 fragment of human plasminogen (residues 450-543), expressed in E. coli or yeast (protein)
chain: LLPDVETPSEEDCMFGNGKGYRGKRATTVTGTPCQDWAAQEPHRHSIFTPETNPRAGLEKNYCRNPDGDVGGPWCYTTNPRKLYDYCDVPQCAA
- caspase 7 activity (caspase 7): significant increase in caspase 7 activity
- inhibition of migration of fibroblasts (fibroblasts): failed to inhibit
